Data as given in patent CN108484759A.

Molecular target: 鸡传染性法氏囊病病毒 B87株
Assay: cell-based or functional assay

B1: IBDV-VP2 scFv30抗体 (scFv)
scFv: AVTLDESGGGLQTPGGALSLVCKGSGFDFSSHGMAWVRQAPGKGLEWVAGIGSSSSGTAYGSAVQGRATISRDNGQSTVRLQLNNLRAEDTGTYYCAKSVGDCAYGYSCAAGGIDAWGHGTEVIVSSASGGGGSGGGGSGGGGSVLTQPSSVSANPGETVKITCSGGGGSYGWFQQKSPGSAPVTVIYNNNNRPSDIPSRFSGSKSGSTATLTITGVQAEDEAVYYCGGSEDSSAGYVGIFGAGTTLTVLG
- 阻断或抑制CPE的最小蛋白浓度: 4.69 µg/mL
